Laboratory results reported in patent publication US20260216242A1, “ALPP-SPECIFIC VARIANT ANTIGEN BINDING MOLECULES” (ALMAC DISCOVERY LIMITED, priority 2022, published 2026).
Positions count from the first letter of the chain named. In names and notes the source's numbering stands.

B1: A06 F05-hFc (S239/442C T366Y/Y407T), [G4S]3 linker, MC-vc-PAB-MMAE conjugate, #665 (Fc fusion, DAR 4)
chain 1: QVHLVESGGGLVQAGGSLRLSCAASGRTFLSMGWFRQAPGKEREFVAAISWTGGSTGYADSVKGRFTISRESDKETMYLQMNSLKPEDTAVYYCAARGDVYYGGDDATRYKYWGQGTQVTVSSGGGGSGGGGSGGGGSEPKSSDKTHTCPPCPAPELLGGPCVFLFPPKPKDTLMISRTPEVTCVVVDVSHEDPEVKFNWYVDGVEVHNAKTKPREEQYNSTYRVVSVLTVLHQDWLNGKEYKCKVSNKALPAPIEKTISKAKGQPREPQVYTLPPSRDELTKNQVSLYCLVKGFYPSDIAVEWESNGQPENNYKTTPPVLDSDGSFFLYSKLTVDKSRWQQGNVFSCSVMHEALHNHYTQKSLCLSPGK
chain 2: QVQLVESGGGLVQAGGSLRLSCAASGRAFGDYNIGWFRQAPGKEREFVARRTWDGSSTRYDDSVKGRFTVSIDNAKNTAYLQMNSLKTEDTAVYYCAAGRYSRVRGWEYDYWGQGTQVTVSSGGGGSGGGGSGGGGSEPKSSDKTHTCPPCPAPELLGGPCVFLFPPKPKDTLMISRTPEVTCVVVDVSHEDPEVKFNWYVDGVEVHNAKTKPREEQYNSTYRVVSVLTVLHQDWLNGKEYKCKVSNKALPAPIEKTISKAKGQPREPQVYTLPPSRDELTKNQVSLTCLVKGFYPSDIAVEWESNGQPENNYKTTPPVLDSDGSFFLTSKLTVDKSRWQQGNVFSCSVMHEALHNHYTQKSLCLSPGK
modifications: here or on the partner: MC-vc-PAB-MMAE on Cys of S239C and S442C (EU numbering)
B2: A06 E10-hFc (S239/442C T366Y/Y407T), [G4S]3 linker, MC-vc-PAB-MMAE conjugate, #664 (Fc fusion, DAR 4)
chain 1: B1 chain 1
chain 2: B1 chain 2 with A24V, F29L, G30S, R51K, D73E, N74D, N84S, V104A
modifications: here or on the partner: MC-vc-PAB-MMAE on Cys of S239C and S442C (EU numbering)
B3: A06 F05-hFc (S239/442C T366Y/Y407T), [G4S]1 linker, MC-vc-PAB-MMAE conjugate, #712 (Fc fusion, DAR 4)
chain 1: QVHLVESGGGLVQAGGSLRLSCAASGRTFLSMGWFRQAPGKEREFVAAISWTGGSTGYADSVKGRFTISRESDKETMYLQMNSLKPEDTAVYYCAARGDVYYGGDDATRYKYWGQGTQVTVSSGGGGSEPKSSDKTHTCPPCPAPELLGGPCVFLFPPKPKDTLMISRTPEVTCVVVDVSHEDPEVKFNWYVDGVEVHNAKTKPREEQYNSTYRVVSVLTVLHQDWLNGKEYKCKVSNKALPAPIEKTISKAKGQPREPQVYTLPPSRDELTKNQVSLYCLVKGFYPSDIAVEWESNGQPENNYKTTPPVLDSDGSFFLYSKLTVDKSRWQQGNVFSCSVMHEALHNHYTQKSLCLSPGK
chain 2: QVQLVESGGGLVQAGGSLRLSCAASGRAFGDYNIGWFRQAPGKEREFVARRTWDGSSTRYDDSVKGRFTVSIDNAKNTAYLQMNSLKTEDTAVYYCAAGRYSRVRGWEYDYWGQGTQVTVSSGGGGSEPKSSDKTHTCPPCPAPELLGGPCVFLFPPKPKDTLMISRTPEVTCVVVDVSHEDPEVKFNWYVDGVEVHNAKTKPREEQYNSTYRVVSVLTVLHQDWLNGKEYKCKVSNKALPAPIEKTISKAKGQPREPQVYTLPPSRDELTKNQVSLTCLVKGFYPSDIAVEWESNGQPENNYKTTPPVLDSDGSFFLTSKLTVDKSRWQQGNVFSCSVMHEALHNHYTQKSLCLSPGK
modifications: here or on the partner: MC-vc-PAB-MMAE on Cys of S239C and S442C (EU numbering)
B4: D10 E06-hFc (S239/442C T366Y/Y407T), [G4S]1 linker, MC-vc-PAB-MMAE conjugate, #677 (Fc fusion, DAR 4)
chain 1: QVQLVESGGGLVQPGGSLRLSCAASGSIFSVNTMGWYRQAPGKQRDLVAVATSGGTIHYADSVKGRFTISRDNAKNTVYLQMNSLKPEDTAVYYCNLVVPYGMIAGDHDYWGQGTKVTVSSGGGGSEPKSSDKTHTCPPCPAPELLGGPCVFLFPPKPKDTLMISRTPEVTCVVVDVSHEDPEVKFNWYVDGVEVHNAKTKPREEQYNSTYRVVSVLTVLHQDWLNGKEYKCKVSNKALPAPIEKTISKAKGQPREPQVYTLPPSRDELTKNQVSLYCLVKGFYPSDIAVEWESNGQPENNYKTTPPVLDSDGSFFLYSKLTVDKSRWQQGNVFSCSVMHEALHNHYTQKSLCLSPGK
chain 2: QVHLVESGGGLVQAGGSLRLSCAASRRSFSEYAMGWFRQAPGKEREFVAAIGWSGVIEYADSVKGRFTISRDNAKDTVYLQMNSLKPEDTAVYYCAAGLGIRVVSQTPAYWGQGTQVTVSSGGGGSEPKSSDKTHTCPPCPAPELLGGPCVFLFPPKPKDTLMISRTPEVTCVVVDVSHEDPEVKFNWYVDGVEVHNAKTKPREEQYNSTYRVVSVLTVLHQDWLNGKEYKCKVSNKALPAPIEKTISKAKGQPREPQVYTLPPSRDELTKNQVSLTCLVKGFYPSDIAVEWESNGQPENNYKTTPPVLDSDGSFFLTSKLTVDKSRWQQGNVFSCSVMHEALHNHYTQKSLCLSPGK
modifications: here or on the partner: MC-vc-PAB-MMAE on Cys of S239C and S442C (EU numbering)
B5: D10 E10-hFc (S239/442C T366Y/Y407T), [G4S]1 linker, MC-vc-PAB-MMAE conjugate, #678 (Fc fusion, DAR 4)
chain 1: B4 chain 1
chain 2: B3 chain 2 with A24V, F29L, G30S, R51K, D73E, N74D, N84S, V104A
modifications: here or on the partner: MC-vc-PAB-MMAE on Cys of S239C and S442C (EU numbering)
B6: D10 F05-hFc (S239/442C T366Y/Y407T), [G4S]1 linker, MC-vc-PAB-MMAE conjugate, #679 (Fc fusion, DAR 4)
chain 1: B4 chain 1
chain 2: B3 chain 2
modifications: here or on the partner: MC-vc-PAB-MMAE on Cys of S239C and S442C (EU numbering)
B7: D10 E06-hFc (S239/442C T366Y/Y407T) [G4S]3 conjugated to MC-vc-PAB-MMAE (Fc fusion, DAR 4.0)
chain 1: QVQLVESGGGLVQPGGSLRLSCAASGSIFSVNTMGWYRQAPGKQRDLVAVATSGGTIHYADSVKGRFTISRDNAKNTVYLQMNSLKPEDTAVYYCNLVVPYGMIAGDHDYWGQGTKVTVSSGGGGSGGGGSGGGGSEPKSSDKTHTCPPCPAPELLGGPCVFLFPPKPKDTLMISRTPEVTCVVVDVSHEDPEVKFNWYVDGVEVHNAKTKPREEQYNSTYRVVSVLTVLHQDWLNGKEYKCKVSNKALPAPIEKTISKAKGQPREPQVYTLPPSRDELTKNQVSLYCLVKGFYPSDIAVEWESNGQPENNYKTTPPVLDSDGSFFLYSKLTVDKSRWQQGNVFSCSVMHEALHNHYTQKSLCLSPGK
chain 2: QVHLVESGGGLVQAGGSLRLSCAASRRSFSEYAMGWFRQAPGKEREFVAAIGWSGVIEYADSVKGRFTISRDNAKDTVYLQMNSLKPEDTAVYYCAAGLGIRVVSQTPAYWGQGTQVTVSSGGGGSGGGGSGGGGSEPKSSDKTHTCPPCPAPELLGGPCVFLFPPKPKDTLMISRTPEVTCVVVDVSHEDPEVKFNWYVDGVEVHNAKTKPREEQYNSTYRVVSVLTVLHQDWLNGKEYKCKVSNKALPAPIEKTISKAKGQPREPQVYTLPPSRDELTKNQVSLTCLVKGFYPSDIAVEWESNGQPENNYKTTPPVLDSDGSFFLTSKLTVDKSRWQQGNVFSCSVMHEALHNHYTQKSLCLSPGK
modifications: here or on the partner: MC-vc-PAB-MMAE on Cys 239 and Cys 442 (S239C, S442C, EU numbering)
B8: D10 F05-hFc (S239/442C T366Y/Y407T) [G4S]3 conjugated to MC-vc-PAB-MMAE (Fc fusion, DAR 3.9)
chain 1: B7 chain 1
chain 2: B1 chain 2
modifications: here or on the partner: MC-vc-PAB-MMAE on Cys 239 and Cys 442 (S239C, S442C, EU numbering)
B9: A06 F05-hFc (S239/442C T366Y/Y407T) [G4S]3 conjugated to MC-vc-PAB-MMAE (Fc fusion, DAR 4.0)
chain 1: B1 chain 1
chain 2: B1 chain 2
modifications: here or on the partner: MC-vc-PAB-MMAE on Cys 239 and Cys 442 (S239C, S442C, EU numbering)

Each binder was assayed against ALPP/ALPPL2 on ALPP/ALPPL2 positive cancer cells (MKN1, NCI-H1651, NCI-N87, Caov-3, HPAC) (assay: cell-based or functional assay).

Row | Binder | % viability remaining at 96 h, MKN1 cells | % viability remaining at 96 h, NCI-H1651 cells | % viability remaining at 96 h, NCI-N87 cells | IC50 at 96 h, cell-killing of MKN1 cells | IC50 at 96 h, cell-killing of NCI-H1651 cells | IC50 at 96 h, cell-killing of NCI-N87 cells
1 | B1 | 31.6% | 25% | 27% | 700 pM | 400 pM | 5800 pM
2 | B2 | 29.7% | 27.2% | 28.7% | 900 pM | 600 pM | 4700 pM
3 | B3 | 27.1% | 31.3% | 20.7% | 45900 pM | 900 pM | 700 pM
4 | B4 | 5.3% | 28.9% | 25.5% | 31800 pM | 1300 pM | 600 pM
5 | B5 | 24.5% | 31% | 23.6% | 8100 pM | 600 pM | 500 pM
6 | B6 | 25.2% | 31.2% | 21.8% | 9700 pM | 800 pM | 600 pM

What follows are binders tested against ALPP/ALPPL2 on ALPP/ALPPL2 positive cancer cells (assay: cell-based or functional assay).

Row | Binder | % viability remaining, MDA-MB-468 cells | % viability remaining, MKN-1 cells | % viability remaining, NCI-H1651 cells | % viability remaining, NCI-N87 cells | IC50 at 96 h (nM), cell-killing of MDA-MB-468 cells (Cell Titre Glo) | IC50 at 96 h (nM), cell-killing of MKN-1 cells (Cell Titre Glo) | IC50 at 96 h (nM), cell-killing of NCI-H1651 cells (Cell Titre Glo) | IC50 at 96 h (nM), cell-killing of NCI-N87 cells (Cell Titre Glo)
7 | B7 | 16% | 12% | 21% | 34% | 1.55 nM | 0.1 nM | 0.53 nM | 3.6 nM
8 | B8 | 17% | 13% | 22% | 37% | 0.96 nM | 0.12 nM | 0.74 nM | 1.8 nM
9 | B9 | 17% | 16% | 22% | 36% | 12 nM | 0.26 nM | 0.47 nM | 7.9 nM
